# Source: patent US20090297479A1 (published 2009)
# Tests used:
# [1] = molecular target: T1, recombinant Fc alone (human, UniProt P01857-1 99-330 = IgG part, limits assumed); assay: FACS on T-cells (ligand on activated T-cells later identified as SD-4)
# T1 construct: domain: Fc portion
# [2] = molecular target: T2, DC-HIL-Fc RAA mutant (replacement of RGD sequence with RAA) (mouse; human, UniProt Q99P91 23-502); assay: FACS, 10 µg/mL on activated CD4+ T-cells (ligand later identified as SD-4)
# T2 construct: extracellular domain; Positions 65 and 66 are derived from the printed position of RGD (aa 64-66); not shown: Fc of human IgG1
# T2 sequence (looked up): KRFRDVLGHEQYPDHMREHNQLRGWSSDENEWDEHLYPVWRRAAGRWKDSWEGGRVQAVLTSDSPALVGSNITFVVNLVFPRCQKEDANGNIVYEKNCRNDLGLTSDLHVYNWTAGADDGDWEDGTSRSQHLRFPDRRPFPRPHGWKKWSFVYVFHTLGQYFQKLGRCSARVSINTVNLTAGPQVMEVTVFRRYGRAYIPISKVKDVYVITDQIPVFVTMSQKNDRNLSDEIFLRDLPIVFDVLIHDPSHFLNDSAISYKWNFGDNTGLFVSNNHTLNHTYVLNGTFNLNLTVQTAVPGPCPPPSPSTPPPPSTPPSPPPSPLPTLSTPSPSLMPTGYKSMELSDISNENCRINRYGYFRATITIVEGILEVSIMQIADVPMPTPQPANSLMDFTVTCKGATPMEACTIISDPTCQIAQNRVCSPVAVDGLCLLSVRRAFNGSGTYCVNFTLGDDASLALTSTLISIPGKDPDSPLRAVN
# Description: Splenic CD3⁺ T-cells (1×10⁶) were activated by immobilized anti-CD3 Ab (1 or 3 μg/mL) or concanavalin A (10 μg/mL; Sigma, St Louis, Mo.) for 3 days. Freshly isolated and activated CD3⁺ T-cells were then treated with 5 μg/mL Fc blocker (BD Pharmingen, San Diego, Calif.) on ice for 30 minutes to block Fc-binding activity of Fc receptors on T-cells and incubated with 5 μg/mL PE-anti-CD3 Ab (BD Pharmingen) and 10 μg/mL DC-HIL-Fc or control human IgG (hIgG) plus 5 μg/mL FITC-anti-human IgG (both from Jackson ImmunoResearch, West Grove, Pa.). In some experiments, activated and Fc-blocked CD3⁺ T-cells were doubly-stained with 5 μg/mL FITC-labeled anti-CD4 or anti-CD8 Ab (BD Pharmingen) and Fc proteins/PE-anti-human IgG (BD Pharmingen). The treated cells were also stained with anti-CD69 Ab or isotypic control IgG to evaluate activation levels. After staining, binding of Fc proteins to T-cells and expression of marker molecules were analyzed by fluorescence-activated cell sorting (FACS).
# [3] = molecular target: T3, DC-HIL, mouse, endogenous on APC / dendritic cells (mouse, UniProt Q99P91 23-574); assay: cell-based or functional assay
# T3 sequence (looked up): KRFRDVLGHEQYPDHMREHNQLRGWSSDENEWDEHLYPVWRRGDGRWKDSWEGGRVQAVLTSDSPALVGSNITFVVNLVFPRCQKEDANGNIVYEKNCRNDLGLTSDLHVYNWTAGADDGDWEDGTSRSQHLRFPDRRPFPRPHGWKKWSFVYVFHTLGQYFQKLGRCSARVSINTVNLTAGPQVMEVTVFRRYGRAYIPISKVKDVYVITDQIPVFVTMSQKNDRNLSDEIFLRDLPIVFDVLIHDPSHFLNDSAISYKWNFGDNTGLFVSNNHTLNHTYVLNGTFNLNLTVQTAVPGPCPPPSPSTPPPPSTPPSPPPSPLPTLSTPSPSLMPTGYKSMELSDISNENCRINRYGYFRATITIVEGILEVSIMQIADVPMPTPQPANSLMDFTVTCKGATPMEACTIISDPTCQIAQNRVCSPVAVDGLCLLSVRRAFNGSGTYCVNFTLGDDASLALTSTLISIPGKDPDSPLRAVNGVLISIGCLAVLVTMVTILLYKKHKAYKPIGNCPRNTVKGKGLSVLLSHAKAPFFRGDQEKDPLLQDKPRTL
binder,measurement,setting,value
"syndecan-4 (SD-4), mouse, endogenous on T-cells (receptor, UniProt O35988 24-198, looked up, heparin/heparan sulfate chains (binding of DC-HIL is blocked by heparin), whole, on cells) ESIRETEVIDPQDLLEGRYFSGALPDDEDAGGSDDFELSGSGDLDDTEEPRPFPEVIEPLVPLDNHIPENAQPGIRVPSEPKELEENEVIPKRAPSDVGDDMSNKVSMSSTAQGSNIFERTEVLAALIVGGVVGILFAVFLILLLVYRMKKKDEGSYDLGKKPIYKKAPTNEFYA",binding result,[1],no binding
same,binding result,[2],binds
"SD4-Fc (extracellular domain of SD-4 fused to the Fc portion of human IgG1) (Fc fusion, UniProt O35988 24-145, looked up, not shown: a dimerising Fc or GST) ESIRETEVIDPQDLLEGRYFSGALPDDEDAGGSDDFELSGSGDLDDTEEPRPFPEVIEPLVPLDNHIPENAQPGIRVPSEPKELEENEVIPKRAPSDVGDDMSNKVSMSSTAQGSNIFERTE",T-cell activation in the mixed lymphocyte reaction (3H-thymidine),[3],2 fold
